Source: patent US20090226404A1 (published 2009)

What was measured:
[1] = target: T1, gp100 (209-217 analogue) peptide on HLA-A*02:01 (human); experiment: killing
T1 peptide: IMDQVPFSV

[2] = target: T2, gp100 peptide on HLA-A*02:01 (human); experiment: cytolytic efficiency of the parental 296 CTL clone, peptide titration; value cited from ref. 24; T cell clone or line
T2 peptide: YLEPGPVTA

[3] = target: T2, gp100 peptide on HLA-A*02:01; experiment: cytolytic efficiency of retrovirally transduced T cells, peptide titration; value taken from earlier work (ref. 24); full-length, on cells
[4] = target: T2, gp100 peptide on HLA-A*02:01; experiment: 51Cr release with peptide titrated on T2 cells; RNA-electroporated CD8+ T cells 24 h after electroporation; upper end of the range; full-length, on cells
Experimental: (§1) CD8⁺ T cells were electroporated with EGFP RNA (Neg) or RNA coding for the TCR α and β chain, and were used as effector cells in cytotoxicity assays 24 h after electroporation. T2 cells loaded with different concentrations of gp100₂₈₀₋₂₈₈ peptide (as indicated) were used as target cells, and % lysis was calculated. The target to effector cell ratio was 1:15. The peptide concentration corresponding to 50% of the maximum lysis (ED₅₀), used to measure the cytolytic efficiency, is indicated by the dotted line. Average values of triplicates±SD are shown. Data of one (out of five) representative T cell donor is shown.
(§2) From previous published work, we know that the cytolytic efficiency of the parental 296 CTL clone was preserved following retroviral transduction of TCR genes into T cells. To test the avidity of the TCR RNA-transfected T cells, we performed a cytotoxicity assay (24 h after electroporation) in which we titrated the gp100₂₈₀₋₂₈₈ peptide on T2 target cells (FIG. 6). The peptide concentration corresponding to 50% of the maximum lysis (i.e. ED₅₀) of the TCR RNA-transfected T cells ranged from 300-1000 pM in three independent experiments (FIG. 6). This is in the same range as the cytolytic efficiency of the retrovirally transduced T cells (ED₅₀=300 pM). Both approximate the cytolytic efficiency of the parental 296 CTL clone, which has an ED₅₀ of 50 pM [24]. […]

[5] = target: T2, gp100 peptide on HLA-A*02:01; experiment: 51Cr release with peptide titrated on T2 cells; RNA-electroporated CD8+ T cells 24 h after electroporation; ED50 is the peptide concentration at 50% of maximum lysis; lower end of the range; full-length, on cells
Experimental: as §1, §2

EC50 of peptide [2]: 0.05 nM | EC50 of peptide [3]: 0.3 nM | EC50 of peptide [4]: ≤ 1 nM | EC50 of peptide [5]: ≥ 0.3 nM
B1: gp100-specific 296 TCR (TCR, V domains shown)
Valpha: GENVEQHPSTLSVQEGDSAVIKCTYSDSASNYFPWYKQELGKGPQLIIDIRSNVGEKKDQRIAVTLNKTAKHFSLHITETQPEDSAVYFCAASTSGGTSYGKLTFGQGTILTVHP
Vbeta: EAQVTQNPRYLITVTGKKLTVTCSQNMNHEYMSWYRQDPGLGLRQIYYSMNVEVTDKGDVPEGYKVSRKEKRNFPLILESPSPNQTSLYFCASSLGSSYEQYFGPGTRLTVT
binding result [1]: no recognition
